This note sets out measurements from PMC8999356, “In Vitro One-Pot 3-Hydroxypropanal Production from Cheap C1 and C2 Compounds” (International Journal of Molecular Sciences, 2022).

Substrate in data set [1]: CC=O
Nature of the data set: aldol condensation, 3-HPA quantified by HPLC after O-benzylhydroxylamine derivatisation, Michaelis-Menten fit. It counts as biochemical, Thermotoga maritima. The settings on record: co-substrate formaldehyde, 20 mM Kpi pH 7.0, 40 °C.

Substrate in data set [2]: C=O
The data set is described as above. The format is biochemical, Thermotoga maritima. The settings on record: co-substrate acetaldehyde, 20 mM Kpi pH 7.0, 40 °C.

B1: DERATma (Thermotoga maritima MSB8) (protein)
chain: MIEYRIEEAVAKYREFYEFKPVRESAGIEDVKSAIEHTNLKPFATPDDIKKLCLEARENRFHGVCVNPCYVKLAREELEGTDVKVVTVVGFPLGANETRTKAHEAIFAVESGADEIDMVINVGMLKAKEWEYVYEDIRSVVESVKGKVVKVIIETCYLDTEEKIAACVISKLAGAHFVKTSTGFGTGGATAEDVHLMKWIVGDEMGVKASGGIRTFEDAVKMIMYGADRIGTSSGVKIVQGGEERYGG
Turning to B1, in data set [1], the Km amounted to 6.95 mM and the turnover number (kcat) was determined as 0.51 min⁻¹. Moreover, in data set [2], the Km is recorded as 2.41 mM and the kcat was 0.49 min⁻¹.
